According to publication doi:10.1101/2023.07.10.548257 (bioRxiv, 2024):
Changes are numbered by the printed parent chain. No end group written: not given here.

Key:
[1] = molecular target: T1, full-length SHP2^T42A (Homo sapiens, UniProt Q06124, T42A); assay: SHP2 activation assay using phosphopeptides (DiFMUP), SHP2 T42A; format: biochemical; settings: activation of full-length SHP2 T42A (0.05 nM) by phosphopeptide; DiFMUP substrate; HEPES pH 7.2 assay buffer; mean of N (column N)
T1 construct: Full-length SHP2 constructs were diluted in assay buffer; His6-TEV (N, cleaved yes); made in house; host or cells: E. coli BL21(DE3)
T1 sequence (Q06124 1-593 T42A): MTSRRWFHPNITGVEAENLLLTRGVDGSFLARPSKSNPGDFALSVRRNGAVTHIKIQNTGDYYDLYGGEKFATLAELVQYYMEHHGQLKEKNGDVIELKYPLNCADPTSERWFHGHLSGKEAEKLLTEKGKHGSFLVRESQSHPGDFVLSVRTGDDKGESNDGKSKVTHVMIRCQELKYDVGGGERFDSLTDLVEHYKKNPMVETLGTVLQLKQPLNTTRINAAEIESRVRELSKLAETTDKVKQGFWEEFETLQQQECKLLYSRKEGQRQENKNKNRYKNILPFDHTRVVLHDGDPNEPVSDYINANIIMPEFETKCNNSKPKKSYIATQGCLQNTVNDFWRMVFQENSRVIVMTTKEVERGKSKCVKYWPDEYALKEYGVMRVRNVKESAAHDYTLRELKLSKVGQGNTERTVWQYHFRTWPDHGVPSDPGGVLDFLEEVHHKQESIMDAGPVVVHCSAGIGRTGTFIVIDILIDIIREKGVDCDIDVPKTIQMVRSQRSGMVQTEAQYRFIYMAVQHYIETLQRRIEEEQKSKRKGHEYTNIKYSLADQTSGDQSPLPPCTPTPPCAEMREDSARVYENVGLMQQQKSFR

[2] = molecular target: T2, full-length SHP2^WT (Homo sapiens, UniProt Q06124); assay: SHP2 activation assay using phosphopeptides (DiFMUP), SHP2 WT; format: biochemical; settings: activation of full-length SHP2 WT (0.05 nM) by phosphopeptide; DiFMUP substrate; 60 mM HEPES pH 7.2, 75 mM KCl, 75 mM NaCl, 1 mM EDTA, 0.05% Tween-20, 0.5 mM TCEP; fluorescence read every 25 s for 6 min; mean of N (column N)
T2 construct: Full-length SHP2 constructs were diluted in assay buffer; His6-TEV (N, cleaved yes); made in house; host or cells: E. coli BL21(DE3)
T2 sequence (Q06124 1-593): T1 sequence (Q06124 1-593 T42A) with A42T
Description: SHP2 activation assays using phosphopeptides
Full-length SHP2 constructs were diluted in assay buffer (60 mM HEPES pH 7.2, 75 mM KCl, 75 mM NaCl,1 mM EDTA, 0.05% Tween-20, with 0.5 mM TCEP freshly added) to a 2X concentration of 0.1 nM. Peptides were serially diluted in assay buffer, with the last point of the concentration series fully without peptide. 15 μL of peptide and 15 μL of 800 μM DiFMUP was added to a black 96-well half area plate. Right before starting the plate reader assay, 30 μL SHP2 was added to each well a Supplementary Information - page 4 of 18 […]
final concentration of 0.05nM. Kinetic measurements (Ex 358/Em […]) were taken on a BioTek Neo2 plate reader every 25 seconds for 6 minutes. […]
(§1) OD600 reached 0.5. 20 mL of cell suspension was induced at 25 °C using a final concentration of 0.4% arabinose until the OD600 ~ 1 (after approximately 4 hours). The cells were spun down at 4000 rpm for 15 minutes, and the pellet was resuspended in PBS so that the OD600 ~1.5. The cells were stored in the fridge and used within a week.
(§2) For each sample, 75 μL of Dynabeads™ FlowComp™ Flexi Kit were washed twice in 1 mL SH2 buffer (50 mM HEPES pH 7.5, 150 mM NaCl, 1 mM TCEP, and 0.2% BSA) on a magnetic rack.
(§3) The beads were then resuspended in 75 μL of SH2 buffer. SH2 domains were thawed quickly and 20 μM of protein was added to the beads. SH2 buffer was added up to 150 μL, and the suspension was incubated for 1 hour at 4 °C while rotating. After 1 hour, the suspension was placed on a magnetic rack and washed twice with 1 mL SH2 buffer.
(§4) Preparing the phosphorylated cells
(§5) 150 μL of prepared cells per sample were spun down for 4000 rpm for 5 minutes at 4 °C.
(§6) Kinase screen buffer was prepared (50 mM Tris, 10 mM magnesium chloride, 150 mM sodium chloride; add 2 mM sodium orthovanadate and 1 mM TCEP fresh) and the cells of each sample were resuspended in 100 μL kinase screen buffer. Kinases c-Src, c-Abl, AncSZ, Eph1B were added to a final concentration of 2.5 µM each, creatine phosphate was added to a final concentration of 5 mM, and phosphokinase was added to a final concentration of 50 µg/mL. The suspension was incubated at 37 °C for 5 minutes before ATP was added to a final concentration of 1 mM. This mixture was incubated at 37 °C for 3 hours. After 3 hours, EDTA was added to a final concentration of 25 mM to quench the reaction. The input library control sample was not phosphorylated. These cells were spun down at 4000 rpm for 15 minutes at 4 °C. The cells were then resuspended in 100 µL of SH2 buffer + 0.1% BSA. Phosphorylation of the cells was confirmed by labeling with the PY20-PerCP-eFluor 710 pan-phosphotyrosine antibody followed by analysis via flow cytometry.
(§7) Enriching for cells displaying high-affinity phosphopeptide ligands
(§8) 100 μL of phosphorylated cells were mixed with 75 µL SH2-beads for 1 hour at 4 °C while rotating. After 1 hour, samples were placed on a magnetic rack, supernatant was removed and 1 mL SH2 buffer was added to each sample. This was rotated for 30 minutes at 4 °C to wash the beads.
(§9) After this wash, the beads were placed on a magnetic rack, the supernatant was removed and 50 µL […]
(§10) Preparing sequencing samples & deep sequencing
All SH2-selected samples and the input library control were resuspended in 50 µL MilliQ water, vortexed, and boiled for 10 minutes at 100 °C. The boiled lysate was used as the DNA template in a PCR reaction using the TruSeq-eCPX-Fwd and TruSeq-eCPX-Rev primers. The mixture resulting from this PCR was used directly into a second PCR to append Illumina sequencing adaptors and Supplementary Information - page 5 of 18

[3] = molecular target: T3, SHP2 N-SH2^WT domain (Homo sapiens, UniProt Q06124); assay: SH2 specificity profiling by bacterial peptide display (Human pTyr and pTyr-Var Libraries), N-SH2 WT; format: binding; settings: for >3.2 --> N-WT-Ave: average enrichment score above cutoff of 3.2 (true binder); for N-WT-Ave (enrichment score): bacterial peptide display, enzymatically phosphorylated displayed peptides, SH2-coated beads, deep sequencing, frequency in enriched sample / input, average, Human pTyr Library N = 3, pTyr-Var Library N = 2
T3 construct: SHP2 SH2 domains were cloned into a His6-SUMO-SH2-Avi construct; His6-SUMO (N, cleaved yes); made in house; host or cells: E. coli C43(DE3), co-expressed with BirA
T3 sequence (Q06124 6-102 limits assumed): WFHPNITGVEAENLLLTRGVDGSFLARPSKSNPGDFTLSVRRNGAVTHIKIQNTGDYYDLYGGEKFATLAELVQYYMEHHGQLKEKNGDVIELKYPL
Description: (§11) Next, we characterized the sequence specificity of the SH2 mutants relative to their wild-type counterparts in a large-scale, unbiased screen. […] For each peptide in a library, an enrichment score is calculated from the deep sequencing data as the frequency of the peptide in the SH2-enriched sample divided by the frequency of the peptide in the unenriched input sample ([34]). For this study, we used two largely non-overlapping libraries, both encoding known human phosphosites. […] The Human pTyr Library consists of 1,916 sequences derived from known phosphorylation sites in the human proteome, along with another 617 control mutants ([35]). […]
(§12) SH2 specificity profiling using bacterial peptide display
(§13) Preparation of bacterial cells
as §1, with “Electrocompetent MC1061 cells were transformed with ~100 ng of the respective library. After 1 hour recovery in 1 mL LB, cells were further diluted into 250 mL LB + 0.1% chloramphenicol. 1.8 mL of overnight culture was used to inoculate 100 mL LB + 0.1% chloramphenicol, and grown until OD600 reached” for “OD600 reached”
as §2, §3, §4, §5, §6, §7, §8, §9, §10
(§14) All SH2-selected samples and the input library control were resuspended in 50 µL MilliQ water, vortexed, and boiled for 10 minutes at 100 °C. The boiled lysate was used as the DNA template in a PCR reaction using the TruSeq-eCPX-Fwd and TruSeq-eCPX-Rev primers. The mixture resulting from this PCR was used directly into a second PCR to append Illumina sequencing adaptors and Supplementary Information - page 5 of 18 […]
(§15) unique 5’ and 3’ indices to each sample (D700 and D500 series primers). The resulting PCR mixtures […]

[4] = molecular target: T4, SHP2 C-SH2^WT domain (Homo sapiens, UniProt Q06124); assay: SH2 specificity profiling by bacterial peptide display (Human pTyr and pTyr-Var Libraries), C-SH2 WT; format: binding; settings: for >3.2 --> C-WT-Ave: average enrichment score above cutoff of 3.2 (true binder); for C-WT-Ave (enrichment score): bacterial peptide display, frequency in enriched sample / input, average, Human pTyr Library N = 3, pTyr-Var Library N = 2
T4 construct: SHP2 SH2 domains were cloned into a His6-SUMO-SH2-Avi construct; His6-SUMO (N, cleaved yes); made in house; host or cells: E. coli C43(DE3), co-expressed with BirA
T4 sequence (Q06124 112-216 limits assumed): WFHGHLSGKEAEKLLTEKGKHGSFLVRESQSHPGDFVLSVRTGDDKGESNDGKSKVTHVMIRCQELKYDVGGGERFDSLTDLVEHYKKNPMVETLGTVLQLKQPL
Description: as §11, §12, §13
as §1, with “Electrocompetent MC1061 cells were transformed with ~100 ng of the respective library. After 1 hour recovery in 1 mL LB, cells were further diluted into 250 mL LB + 0.1% chloramphenicol. 1.8 mL of overnight culture was used to inoculate 100 mL LB + 0.1% chloramphenicol, and grown until OD600 reached” for “OD600 reached”
as §2, §3, §4, §5, §6, §7, §8, §9, §10, §14, §15

[5] = molecular target: T5, SHP2 C-SH2^E139D domain (Homo sapiens, UniProt Q06124, E139D); assay: SH2 specificity profiling by bacterial peptide display (Human pTyr and pTyr-Var Libraries), C-SH2 E139D; format: binding; settings: for >3.2 --> C-E139D-Ave: average enrichment score above cutoff of 3.2 (true binder); for C-E139D-Ave (enrichment score): bacterial peptide display, frequency in enriched sample / input, average, Human pTyr Library N = 3, pTyr-Var Library N = 2
T5 construct: SHP2 SH2 domains were cloned into a His6-SUMO-SH2-Avi construct; His6-SUMO (N, cleaved yes); made in house; host or cells: E. coli C43(DE3), co-expressed with BirA
T5 sequence (Q06124 112-216 E139D limits assumed): T4 sequence (Q06124 112-216 limits assumed) with E28D
Description: as §11, §12, §13
as §1, with “Electrocompetent MC1061 cells were transformed with ~100 ng of the respective library. After 1 hour recovery in 1 mL LB, cells were further diluted into 250 mL LB + 0.1% chloramphenicol. 1.8 mL of overnight culture was used to inoculate 100 mL LB + 0.1% chloramphenicol, and grown until OD600 reached” for “OD600 reached”
as §2, §3, §4, §5, §6, §7, §8, §9, §10, §14, §15

Compound | EC50 [1] | EC50 [2] | >3.2 --> N-WT-Ave [3] | N-WT-Ave (enrichment score) [3] | >3.2 --> C-WT-Ave [4] | C-WT-Ave (enrichment score) [4] | >3.2 --> C-E139D-Ave [5] | C-E139D-Ave (enrichment score) [5]
CC[C@H](C)[C@H](NC(=O)[C@@H](NC(=O)[C@H](C)NC(=O)[C@H](Cc1ccc(OP(=O)(O)O)cc1)NC(=O)[C@@H](NC(=O)[C@@H]1CCCN1C(=O)[C@H](CCC(=O)O)NC(=O)[C@@H]1CCCN1C(=O)[C@H](CO)NC(=O)[C@H](C)NC(C)=O)[C@@H](C)CC)[C@@H](C)O)C(=O)N[C@@H](CC(=O)O)C(=O)N[C@@H](Cc1ccccc1)C(=O)N[C@@H](CC(=O)O)C(N)=O | 1460 nM | 2.82 µM | – | – | – | – | – | –
CC(=O)NCC(=O)N[C@@H](CC(=O)O)C(=O)N[C@@H](CCCCN)C(=O)N[C@@H](CCC(N)=O)C(=O)N[C@H](C(=O)N[C@@H](CCC(=O)O)C(=O)N[C@@H](Cc1ccc(OP(=O)(O)O)cc1)C(=O)N[C@@H](CC(C)C)C(=O)N[C@@H](CC(=O)O)C(=O)N[C@@H](CC(C)C)C(=O)N[C@@H](CC(=O)O)C(=O)N[C@@H](CC(C)C)C(=O)N[C@@H](CC(=O)O)C(N)=O)C(C)C | – | 26.2 µM | – | – | – | – | – | –
MKGDAARYLAEVATG (bacterially displayed) [1433G_HUMAN_133_YA] | – | – | FALSE (>3.2 -->) | 0.9356 | FALSE (>3.2 -->) | 0.8982 | – | –
MKGDAHRYLAEFATG (bacterially displayed) [1433E_HUMAN_131_YA] | – | – | FALSE (>3.2 -->) | 0.7788 | FALSE (>3.2 -->) | 0.6613 | FALSE (>3.2 -->) | 0.7738
MKGDYHRYLAEFATG (also: phosphorylated, site not given here) [1433E_HUMAN_131] | – | – | FALSE (>3.2 -->) | 0.8269 | FALSE (>3.2 -->) | 0.8786 | FALSE (>3.2 -->) | 0.911
MKGDYYRYLAEVATG (also: phosphorylated, site not given here) [1433G_HUMAN_133] | – | – | FALSE (>3.2 -->) | 0.8572 | FALSE (>3.2 -->) | 0.777 | FALSE (>3.2 -->) | 0.8393
